Broadly, the stoichiometry N is the number of molecules, sites or subunits per partner or assembly.

This is an account of results in article PMC2230226.

Some targets named below: recombinant tryptase (UniProt Q15661); urokinase (uPA) (UniProt P00749); recombinant sc-tPA (UniProt P00750); human α-FXIIa (human) (UniProt P00748).
Assay [1] deals with human plasmin (human).
Assay [2] deals with bovine factor Xa (bovine).
Assay [3] deals with recombinant human FVIIa (NovoSeven) (human) (UniProt P08709).
recombinant human FVIIa (NovoSeven) (human), sequence (P08709 61-212, chain 1 of 2): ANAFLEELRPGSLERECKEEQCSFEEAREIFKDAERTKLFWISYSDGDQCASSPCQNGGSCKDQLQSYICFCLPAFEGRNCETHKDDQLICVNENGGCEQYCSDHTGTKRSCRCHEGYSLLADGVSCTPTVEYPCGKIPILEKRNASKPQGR
recombinant human FVIIa (NovoSeven) (human), sequence (P08709 213-466, chain 2 of 2): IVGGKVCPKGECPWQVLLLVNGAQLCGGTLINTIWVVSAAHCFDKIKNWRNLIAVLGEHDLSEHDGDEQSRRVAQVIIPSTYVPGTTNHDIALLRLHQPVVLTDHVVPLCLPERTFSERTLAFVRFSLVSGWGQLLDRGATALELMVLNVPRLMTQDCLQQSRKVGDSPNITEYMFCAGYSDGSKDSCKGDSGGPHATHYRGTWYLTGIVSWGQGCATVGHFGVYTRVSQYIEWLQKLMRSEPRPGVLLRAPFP
Assay [4] concerns the target human plasma kallikrein (human) (UniProt P03952).
The target in assay [5] is bovine pancreatic trypsin (bovine).
For assay [6] the target is unchanged. Put plainly: enzyme inhibition kinetics (progress curves, chromogenic substrate); slow-binding inhibition; second-order rate constant k2/Ki from kobs; 0.2 mM Chromozym TH (trypsin, 6.25 ng/ml) or Chromozym PL (plasmin, 12.5 µg/ml); boophilin 0.1-0.65 µM (trypsin) or 0.04-0.4 µM (plasmin); 45 min at 37°C.
Assay [7] has the same target. Put plainly: native gel or EMSA; 500 ng human thrombin or bovine trypsin in 25 mM Tris-HCl pH 8.0, 190 mM glycine, mixed with increasing boophilin, 15 min at room temperature; 10% Tris-glycine polyacrylamide gel at 4°C, silver-stained.
In a further assay the target is human α-thrombin (human). Described as above.
In assay [8] the target is bovine α-thrombin (bovine). The assay is described as follows: enzyme inhibition (amidolytic activity, chromogenic substrate); Ki of thrombin inhibition; tight-binding kinetics assumed, apparent (native inhibitor); the conditions of the Ki determination itself are not told.
Assay [9] addresses human plasmin (human). Put plainly: enzyme inhibition kinetics (progress curves, chromogenic substrate); slow-binding inhibition; second-order rate constant k2/Ki from kobs; 0.2 mM Chromozym TH (trypsin, 6.25 ng/ml) or Chromozym PL (plasmin, 12.5 µg/ml); boophilin 0.1-0.65 µM (trypsin) or 0.04-0.4 µM (plasmin); 45 min at 37°C.
Target sequence in this assay (P00747 20-580, chain 1 of 2): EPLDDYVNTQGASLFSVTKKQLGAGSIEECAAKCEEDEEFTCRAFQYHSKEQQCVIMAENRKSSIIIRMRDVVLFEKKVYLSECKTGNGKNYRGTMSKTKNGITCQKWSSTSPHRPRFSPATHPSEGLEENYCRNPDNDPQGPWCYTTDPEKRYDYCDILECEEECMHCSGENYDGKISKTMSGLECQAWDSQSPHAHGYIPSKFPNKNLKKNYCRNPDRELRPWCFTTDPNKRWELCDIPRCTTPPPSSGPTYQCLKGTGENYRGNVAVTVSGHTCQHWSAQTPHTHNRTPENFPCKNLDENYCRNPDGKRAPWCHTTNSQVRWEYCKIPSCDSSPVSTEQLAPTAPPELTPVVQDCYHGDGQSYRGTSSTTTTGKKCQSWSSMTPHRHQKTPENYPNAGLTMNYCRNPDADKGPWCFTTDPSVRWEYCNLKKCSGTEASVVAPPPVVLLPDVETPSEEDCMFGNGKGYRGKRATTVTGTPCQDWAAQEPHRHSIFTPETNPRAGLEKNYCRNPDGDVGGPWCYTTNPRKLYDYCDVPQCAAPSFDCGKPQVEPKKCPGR
Target sequence in this assay (P00747 581-810, chain 2 of 2): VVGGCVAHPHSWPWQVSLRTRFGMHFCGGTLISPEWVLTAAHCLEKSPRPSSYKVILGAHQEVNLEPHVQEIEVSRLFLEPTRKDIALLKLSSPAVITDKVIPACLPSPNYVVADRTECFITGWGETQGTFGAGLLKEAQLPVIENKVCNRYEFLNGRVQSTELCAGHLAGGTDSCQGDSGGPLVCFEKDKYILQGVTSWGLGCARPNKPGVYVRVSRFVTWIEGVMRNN

human plasma kallikrein (human), sequence (P03952 20-390, chain 1 of 2): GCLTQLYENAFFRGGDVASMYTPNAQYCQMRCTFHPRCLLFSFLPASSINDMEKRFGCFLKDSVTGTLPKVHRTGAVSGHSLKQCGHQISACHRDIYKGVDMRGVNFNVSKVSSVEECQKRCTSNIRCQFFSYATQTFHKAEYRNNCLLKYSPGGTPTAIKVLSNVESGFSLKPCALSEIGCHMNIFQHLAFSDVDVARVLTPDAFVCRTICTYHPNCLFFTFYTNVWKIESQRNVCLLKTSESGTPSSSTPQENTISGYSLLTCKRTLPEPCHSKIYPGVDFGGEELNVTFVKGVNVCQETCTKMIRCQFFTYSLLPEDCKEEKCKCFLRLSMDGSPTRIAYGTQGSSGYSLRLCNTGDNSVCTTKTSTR
human plasma kallikrein (human), sequence (P03952 391-638, chain 2 of 2): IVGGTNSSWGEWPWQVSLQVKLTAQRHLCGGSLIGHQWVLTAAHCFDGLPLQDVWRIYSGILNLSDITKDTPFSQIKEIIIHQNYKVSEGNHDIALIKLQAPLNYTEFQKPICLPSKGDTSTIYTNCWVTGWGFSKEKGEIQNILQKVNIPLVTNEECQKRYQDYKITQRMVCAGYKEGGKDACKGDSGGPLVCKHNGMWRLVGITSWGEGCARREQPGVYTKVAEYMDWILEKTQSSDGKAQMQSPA
human α-FXIIa (human), sequence (P00748 20-372, chain 1 of 2): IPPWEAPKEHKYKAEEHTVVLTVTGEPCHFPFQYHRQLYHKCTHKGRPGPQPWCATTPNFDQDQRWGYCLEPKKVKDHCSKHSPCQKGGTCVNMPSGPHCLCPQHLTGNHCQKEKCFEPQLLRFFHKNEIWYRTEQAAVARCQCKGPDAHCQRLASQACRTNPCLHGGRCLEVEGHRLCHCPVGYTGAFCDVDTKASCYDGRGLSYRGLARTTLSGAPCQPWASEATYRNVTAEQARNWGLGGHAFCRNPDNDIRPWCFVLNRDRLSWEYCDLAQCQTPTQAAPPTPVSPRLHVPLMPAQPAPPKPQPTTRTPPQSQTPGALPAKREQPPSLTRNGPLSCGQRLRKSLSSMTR
human α-FXIIa (human), sequence (P00748 373-615, chain 2 of 2): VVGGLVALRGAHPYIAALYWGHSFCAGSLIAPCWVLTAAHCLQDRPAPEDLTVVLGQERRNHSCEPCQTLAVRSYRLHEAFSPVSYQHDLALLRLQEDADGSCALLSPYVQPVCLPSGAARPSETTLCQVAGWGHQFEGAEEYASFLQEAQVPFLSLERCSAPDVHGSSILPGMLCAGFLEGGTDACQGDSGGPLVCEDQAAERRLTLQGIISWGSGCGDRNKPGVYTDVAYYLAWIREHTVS
recombinant sc-tPA, sequence (P00750 36-562): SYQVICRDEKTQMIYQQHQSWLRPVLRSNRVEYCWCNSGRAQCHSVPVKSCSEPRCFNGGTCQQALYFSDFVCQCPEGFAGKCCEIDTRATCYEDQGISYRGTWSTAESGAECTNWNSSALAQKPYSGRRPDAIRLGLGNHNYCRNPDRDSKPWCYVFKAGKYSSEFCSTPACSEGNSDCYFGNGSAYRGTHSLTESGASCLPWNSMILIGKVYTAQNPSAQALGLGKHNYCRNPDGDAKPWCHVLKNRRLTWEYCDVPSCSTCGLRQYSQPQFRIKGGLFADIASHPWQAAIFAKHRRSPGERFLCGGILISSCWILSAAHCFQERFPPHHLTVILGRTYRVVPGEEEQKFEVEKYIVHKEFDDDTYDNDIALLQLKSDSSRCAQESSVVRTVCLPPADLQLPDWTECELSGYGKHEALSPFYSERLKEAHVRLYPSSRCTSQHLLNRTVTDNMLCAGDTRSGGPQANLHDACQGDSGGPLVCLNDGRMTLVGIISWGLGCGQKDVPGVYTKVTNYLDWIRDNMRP
recombinant tryptase, sequence (Q15661 19-275): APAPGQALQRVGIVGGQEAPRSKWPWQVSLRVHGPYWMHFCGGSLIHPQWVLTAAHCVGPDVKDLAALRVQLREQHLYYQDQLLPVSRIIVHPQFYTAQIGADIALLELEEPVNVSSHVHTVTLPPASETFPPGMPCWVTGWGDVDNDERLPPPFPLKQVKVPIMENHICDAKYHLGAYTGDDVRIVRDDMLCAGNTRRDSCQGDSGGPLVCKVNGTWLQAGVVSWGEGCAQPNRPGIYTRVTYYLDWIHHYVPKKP

With “isolated C-terminal boophilin domain (domain or fragment)”, in the assay with recombinant tryptase, the Inhibition of amidolytic activity (%), recombinant inhibitor (C-terminal domain) 15.2 µM, substrate Chromozym TH was 8%. The Inhibition of amidolytic activity (%), recombinant inhibitor (C-terminal domain) 15.2 µM, substrate Chromozym PL with human plasmin (human) [1] was 25%. The Inhibition of amidolytic activity (%), recombinant inhibitor (C-terminal domain) 15.2 µM, substrate Pefachrome uPA with urokinase (uPA) worked out at 17%. Further, the Inhibition of amidolytic activity (%), recombinant inhibitor (C-terminal domain) 15.2 µM, substrate Chromozym X in assay [2] was determined as 0%. The Inhibition of amidolytic activity (%), recombinant inhibitor (C-terminal domain) 15.2 µM, substrate Chromozym tPA in assay [3] stood at 0%. Besides, in assay [4], the Inhibition of amidolytic activity (%), recombinant inhibitor (C-terminal domain) 15.2 µM, substrate Chromozym PK worked out at 0%. Besides, the Inhibition of amidolytic activity (%), recombinant inhibitor (C-terminal domain) 15.2 µM, substrate Pefachrome tPA was found to be 80% in [5] and 2% with recombinant sc-tPA. Besides, in the assay with human α-FXIIa (human), the Inhibition of amidolytic activity (%), recombinant inhibitor (C-terminal domain) 15.2 µM, substrate Pefachrome FXIIa was 0%.

Substance native boophilin (natural protein) registered a second order rate constant k2/Ki in [6] of 308000 M⁻¹ s⁻¹. In the assay with human plasmin (human) [1], the Inhibition of amidolytic activity (%), native inhibitor 3.53 µM, substrate Chromozym PL is 87%. For the same substance, the Inhibition of amidolytic activity (%), native inhibitor 3.53 µM, substrate Pefachrome uPA with urokinase (uPA) was 16%. Also, in assay [2], the Inhibition of amidolytic activity (%), native inhibitor 3.53 µM, substrate Chromozym X stood at 10%. Further, the Inhibition of amidolytic activity (%), native inhibitor 3.53 µM, substrate Chromozym PK in assay [4] worked out at 66%. In addition, the Inhibition of amidolytic activity (%), native inhibitor 3.53 µM, substrate Pefachrome tPA in assay [5] amounted to 97%. Moreover, the stoichiometry N (in assay [7]; in the assay with human α-thrombin (human)) was 1 each time. Also, the Ki in assay [8] was found to be 1.8 nM.

“recombinant boophilin (full-length mature protein, variant H2) (from UniProt Q8WPI2 16-142) (natural protein)”: the second order rate constant k2/Ki worked out at 259000 M⁻¹ s⁻¹ with human plasmin (human) [9] and 384000 M⁻¹ s⁻¹ in assay [6]. Besides, the Inhibition of amidolytic activity (%), recombinant inhibitor (full-length) 2.36 µM, substrate Chromozym PL with human plasmin (human) [1] was determined as 95%. Moreover, the Inhibition of amidolytic activity (%), recombinant inhibitor (full-length) 2.36 µM, substrate Pefachrome tPA in assay [5] was found to be 98%. Also, in assay [8], the Ki was found to be 3.4 nM.
